To fix the notation:
B1: GST-M110-(M377-K976): GST fusion of the C-terminal 600 residues of the M110 subunit from rat aorta (protein)
chain: MASVTNAHTASTQAAPAAVTTPTLSSNQGTPTSPVKKFPTSTTKISPKEEERKDESPASWRLGLRKTGSYGALAEITASKEAQKEKDTAGVIRSASSPRLSSSLDNKEKEKDNKGTRLAYVAPTIPRRLGSTSDIEEKENRESSNLRTSSSYTRRKWEDDLKKNSSINEGSTYHRSTSNRLWAEDSTEKEKDSAPTAATILVAPTVVSAAASSTTALTTTTAGTLSSTSEVRERRRSYLTPVRDEESESQRKARSRQARQSRRSTQGVTLTDLQEAEKTIGRSRSTRTREQENEEKDKEEKEKQDKEKQEEKKESEVSREDEYKQKYSRTYDETYARYRPVSTSSSSTPSSSSLSTLGSSLYASSQLNRPNSLVGITSAYSRGLTKDNEREGEKKEEEKEGEDKSQPKSIRERRRPREKRRSTGVSFWTQDSDENEQERQSDTEDGSSKRDTQTDSVSRYDSSSTSSSDRYDSLLGRSASYSYLEERKPYGSRLEKDDSTDFKKLYEQILAENEKLKAQLHDTNMELTDLKLQLEKATQRQERFADRSLLEMEKRERRALERRISEMEEELKMLPDLKADNQRLKDENGALIRVISKLSK
modifications: left off: a dimerising Fc or GST
notes: GST fusion of the C-terminal 600 residues of the M110 subunit from rat aorta
B2: GST-M21: GST fusion of the chicken gizzard M21 subunit (M1-K186) (protein)
chain: MSSLFTRSKEYTRSRKSQSDSPPSSPSPIAKTLRHERLSRLEAATTPATSDSYSDRASSRSSAYSRRENRLAALSSRAEEESNRDYKKLYESALSENQKLKSKLQEAQLELADIKSKLEKAAQQKHEKTSDRSSMLEMEKREKRALERKLSEMEEEMKILTELKSDNQRLKDENGALIRVISKLSK
modifications: left off: a dimerising Fc or GST; small tags and cut ends
B3: complex between GST-M21 and M110-(R714-I1004): complex purified on glutathione-Sepharose from GST-M21 mixed with bacterial extract expressing M110-(R714-I1004) (protein)
GST-M21 (M21 part): MSSLFTRSKEYTRSRKSQSDSPPSSPSPIAKTLRHERLSRLEAATTPATSDSYSDRASSRSSAYSRRENRLAALSSRAEEESNRDYKKLYESALSENQKLKSKLQEAQLELADIKSKLEKAAQQKHEKTSDRSSMLEMEKREKRALERKLSEMEEEMKILTELKSDNQRLKDENGALIRVISKLSK
M110-(R714-I1004): RSTRTREQENEEKEKEEKEKQDKEKQEEKKESETKDDDYRQRYSRTVEEPYHRYRPTSTSTSTSSTSSLSTSTSSLSSSSQLNRPNSLIGITSAYSRSGTKESEREGGKKEEEKEEDKSQPKSIRERRRPREKRRSTGVSFWTQDSDENEQEHQSDSEEGTNKKETQSDSLSRYDTGSLSVSSGDRYDSAQGRSGSQSYLEDRKPYCSRLEKEDSTDFKKLYEQILAENEKLKAQLHDTNMELTDLKLQLEKTTQRQERFADRSLLEMEKRVSGKSQYLLGGKKSSRKKDI
modifications: left off: a dimerising Fc or GST; small tags and cut ends

The target in the assay is T1, myosin (Gallus gallus, UniProt P10587).
T1 construct: from tissue; host or cells: chicken gizzard
T1 sequence (P10587 whole entry): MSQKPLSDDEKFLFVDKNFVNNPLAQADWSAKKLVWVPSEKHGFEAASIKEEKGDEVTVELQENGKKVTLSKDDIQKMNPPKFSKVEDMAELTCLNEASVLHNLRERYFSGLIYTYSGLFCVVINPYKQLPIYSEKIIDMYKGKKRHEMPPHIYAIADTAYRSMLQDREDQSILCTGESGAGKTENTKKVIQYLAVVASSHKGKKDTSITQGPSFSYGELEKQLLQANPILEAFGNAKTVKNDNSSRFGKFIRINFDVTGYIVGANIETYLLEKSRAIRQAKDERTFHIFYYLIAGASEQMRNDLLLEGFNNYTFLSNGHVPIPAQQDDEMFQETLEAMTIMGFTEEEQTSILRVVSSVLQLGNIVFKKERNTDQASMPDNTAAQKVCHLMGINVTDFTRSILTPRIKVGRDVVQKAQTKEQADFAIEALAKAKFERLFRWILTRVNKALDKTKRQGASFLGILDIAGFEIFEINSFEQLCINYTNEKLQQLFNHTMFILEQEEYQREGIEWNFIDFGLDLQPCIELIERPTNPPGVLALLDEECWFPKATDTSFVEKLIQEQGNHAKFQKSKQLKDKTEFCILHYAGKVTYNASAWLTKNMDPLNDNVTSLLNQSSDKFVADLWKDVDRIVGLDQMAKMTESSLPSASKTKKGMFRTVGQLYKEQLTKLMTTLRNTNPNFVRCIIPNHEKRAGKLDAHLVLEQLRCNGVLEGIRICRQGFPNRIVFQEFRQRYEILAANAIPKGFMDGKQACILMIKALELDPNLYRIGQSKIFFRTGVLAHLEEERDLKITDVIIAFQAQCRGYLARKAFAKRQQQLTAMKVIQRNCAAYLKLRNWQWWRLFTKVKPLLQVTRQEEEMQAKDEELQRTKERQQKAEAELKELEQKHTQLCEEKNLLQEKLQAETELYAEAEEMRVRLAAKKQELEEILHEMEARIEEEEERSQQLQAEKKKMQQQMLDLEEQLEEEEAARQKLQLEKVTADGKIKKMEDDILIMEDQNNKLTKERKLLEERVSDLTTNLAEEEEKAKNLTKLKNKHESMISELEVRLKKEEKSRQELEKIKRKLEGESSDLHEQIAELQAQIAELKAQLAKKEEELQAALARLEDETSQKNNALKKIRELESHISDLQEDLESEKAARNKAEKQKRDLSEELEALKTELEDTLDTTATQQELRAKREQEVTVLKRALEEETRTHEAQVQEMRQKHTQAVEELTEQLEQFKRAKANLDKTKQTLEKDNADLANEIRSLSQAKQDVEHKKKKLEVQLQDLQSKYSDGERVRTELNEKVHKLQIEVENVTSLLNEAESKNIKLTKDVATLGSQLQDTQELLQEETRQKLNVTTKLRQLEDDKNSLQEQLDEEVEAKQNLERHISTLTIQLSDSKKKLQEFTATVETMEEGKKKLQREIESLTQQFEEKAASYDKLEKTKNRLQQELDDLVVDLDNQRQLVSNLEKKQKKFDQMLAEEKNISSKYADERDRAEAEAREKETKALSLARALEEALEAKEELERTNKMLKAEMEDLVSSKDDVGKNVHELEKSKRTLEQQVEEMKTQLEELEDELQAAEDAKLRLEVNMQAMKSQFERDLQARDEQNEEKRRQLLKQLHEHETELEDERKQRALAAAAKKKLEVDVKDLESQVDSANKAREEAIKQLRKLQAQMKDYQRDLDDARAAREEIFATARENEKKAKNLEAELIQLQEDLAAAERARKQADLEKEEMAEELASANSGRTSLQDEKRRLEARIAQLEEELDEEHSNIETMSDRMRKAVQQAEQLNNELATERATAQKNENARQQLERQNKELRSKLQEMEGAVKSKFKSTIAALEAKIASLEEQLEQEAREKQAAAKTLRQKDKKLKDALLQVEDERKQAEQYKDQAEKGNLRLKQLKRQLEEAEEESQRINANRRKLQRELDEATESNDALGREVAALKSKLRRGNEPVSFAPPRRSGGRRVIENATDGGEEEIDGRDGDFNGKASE
T1 sequence (P02612 whole entry partner): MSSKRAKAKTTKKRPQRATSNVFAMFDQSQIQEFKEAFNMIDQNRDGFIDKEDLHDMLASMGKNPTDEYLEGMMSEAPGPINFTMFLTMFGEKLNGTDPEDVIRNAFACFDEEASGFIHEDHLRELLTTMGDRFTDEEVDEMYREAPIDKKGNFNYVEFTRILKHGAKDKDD
T1 sequence (P02607 whole entry partner): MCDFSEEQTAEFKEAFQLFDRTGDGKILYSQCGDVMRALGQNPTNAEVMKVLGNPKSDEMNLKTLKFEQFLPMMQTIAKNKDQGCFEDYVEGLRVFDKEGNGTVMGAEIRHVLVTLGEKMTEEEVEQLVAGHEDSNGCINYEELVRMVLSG
As to the kind of experiment: Myosin binding assay (pelleting with myosin). Also noted: species or system chicken. To be noted: myosin 1 μM, 15 min 0° C. On the procedure:
The PP1 catalytic subunit (PP1c), PP1M, or PP1M lacking the M21 subunit, PP1M(ΔM21), each at 30 nM, were incubated for 15 min at 0° C. with 1 μM myosin and centrifuged (see Methods of Example 3). […] The results shown are the average (±S.E.M.) for three separate experiments each assayed in duplicate.
(A); PP1M, M110-(M1-S477) and GST-M110-(M377-K976), each at 30 nM were incubated for 15 min at 0° C. with 1 μM myosin and centrifuged. The supernatants (S), resuspended pellets (P) and the suspension before centrifugation (T, total) were electrophoresed on 12% SDS/polyacrylamide gels, transferred to nitrocellulose and immunoblotted with antibodies raised against the PP1M holoenzyme. No protein was pelleted in the absence of myosin (not shown). The positions of the marker proteins myosin heavy chain (200 kDa), glycogen phosphorylase (97 kDa), bovine serum albumin (66 kDa), ovalbumin (43 kDa), carbonic anhydrase (29 kDa) and soybean trypsin inhibitor (20 kDa) are indicated. (B) The experiments were carried out as in (A), except that the M110 fragments and M21 subunit were used at 100 nM, the 8.5 kDa M110-(K933-I1004) fragment was electrophoresed on a 16.5% polyacrylamide gel and immunoblotting was carried out with affinity purified antibodies (see Methods). A small amount of M110-(R714-I1004) pelleted in the absence of myosin. […] No other protein was pelleted in the absence of myosin.
(A); Myosin (1 μM) was mixed with 50 μM, 20 μM or 10 μM M21 subunit to give the molar ratios M21:myosin dimer indicated. After 15 min at 0° C., the solutions were centrifuged and the supernatants (S), resuspended pellets (P) and the suspension before centrifugation (T, total) were electrophoresed on 12% SDS/polyacrylamide gels and stained with Coomassie blue. The positions of the myosin heavy chain (MHC) and the M21 subunit are indicated. The myosin light chains migrate faster than the M21 subunit and are not visible at these loadings.
Myosin binding assays. Myosin (0.5 mg/ml, 1 μM in terms of myosin heavy chains) in 10 mM Hepes pH 7.5, 50 mM KCl, 5 mM MgCl2, 0.1% (by vol) 2-mercaptoethanol, was mixed with PP1M, M21 subunit, or fragments of the M110 and M21 subunits, at the concentrations indicated in figure legends. After incubation for 15 min at 0° C., the solutions were centrifuged for 2 min at 13,000×g, the supernatants removed, and the pellets washed twice in 10 mM Hepes pH 7.5, 50 mM KCl, 5 mM MgCl2, 0.1% (by vol) 2-mercaptoethanol before resuspension in 50 mM Tris-HCl pH 7.5, 0.1 mM EGTA, 0.03% (by mass) Brij 35, 0.6 M NaCl, 0.1% (by vol) 2-mercaptoethanol. Aliquots of the supernatant, the resuspended pellet and the suspension before centrifugation were either assayed for myosin P-light chain phosphatase activity or denatured in SDS and analysed by SDS/polyacrylamide gel electrophoresis.
As to B1, the binding to myosin result is “bound to myosin”.
The value for B2 was “bound to myosin”.
The value for B3 was “bound quantitatively to myosin”.

Values taken from US6884600B1, “Protein phosphatase-1 catalytic subunit interactions” (Medical Research Council London, priority 1996, dated 2005).
